How the values were obtained:
[1] = target: recombinant human FAM19A5 protein (His-tagged) (human) (UniProt Q7Z5A7); assay: ELISA on N'-Term His FAM19A5, fit of the titration (OD 492 nm); R2 printed 0.9105
[2] = target: recombinant human FAM19A5 protein (His-tagged) (human) (UniProt Q7Z5A7); assay: ELISA on N'-Term His FAM19A5, fit of the titration; R2 printed 0.9105
[3] = target: recombinant human FAM19A5 protein (His-tagged) (human) (UniProt Q7Z5A7); assay: two-site sandwich ELISA; capture antibody 1-65; S/N = O.D. at 10 ng/mL antigen / O.D. at 0 ng/mL; O.D. in column 0 printed 0.12
[4] = target: recombinant human FAM19A5 protein (His-tagged) (human) (UniProt Q7Z5A7); assay: two-site sandwich ELISA; capture antibody P2-A03; biotinylated detection antibody P2-F11; antigen in ng/mL
[5] = target: recombinant human FAM19A5 protein (His-tagged) (human) (UniProt Q7Z5A7); assay: two-site sandwich ELISA; capture antibody 2-13; biotinylated detection antibody P2-F11; antigen in ng/mL
[6] = target: recombinant human FAM19A5 protein (His-tagged) (human) (UniProt Q7Z5A7); assay: two-site sandwich ELISA; capture antibody 1-65; biotinylated detection antibody P2-F11; antigen in ng/mL
[7] = target: recombinant human FAM19A5 protein (His-tagged) (human) (UniProt Q7Z5A7); assay: two-site sandwich ELISA; capture antibody 2-13; S/N = O.D. at 10 ng/mL antigen / O.D. at 0 ng/mL; O.D. in column 0 printed 0.29
[8] = target: recombinant human FAM19A5 protein (His-tagged) (human) (UniProt Q7Z5A7); assay: ELISA on N'-Term His FAM19A5, fit of the titration (OD 492 nm); R2 printed 0.9692
[9] = target: recombinant human FAM19A5 protein (His-tagged) (human) (UniProt Q7Z5A7); assay: two-site sandwich ELISA; capture antibody P2-A03; S/N = O.D. at 10 ng/mL antigen / O.D. at 0 ng/mL; O.D. in column 0 printed 0.09
[10] = target: recombinant human FAM19A5 protein (His-tagged) (human) (UniProt Q7Z5A7); assay: two-site sandwich ELISA; capture antibody 13B4; biotinylated detection antibody P2-F11; antigen in ng/mL
[11] = target: recombinant human FAM19A5 protein (His-tagged) (human) (UniProt Q7Z5A7); assay: two-site sandwich ELISA; capture antibody 3-2; S/N = O.D. at 10 ng/mL antigen / O.D. at 0 ng/mL; O.D. in column 0 printed 0.13
[12] = target: recombinant human FAM19A5 protein (His-tagged) (human) (UniProt Q7Z5A7); assay: two-site sandwich ELISA; capture antibody 13B4; S/N = O.D. at 10 ng/mL antigen / O.D. at 0 ng/mL; O.D. in column 0 printed 0.18
[13] = target: recombinant human FAM19A5 protein (His-tagged) (human) (UniProt Q7Z5A7); assay: ELISA on N'-Term His FAM19A5, fit of the titration; R2 printed 0.9692
[14] = target: recombinant human FAM19A5 protein (His-tagged) (human) (UniProt Q7Z5A7); assay: two-site sandwich ELISA; capture antibody 3-2; biotinylated detection antibody P2-F11; antigen in ng/mL
[15] = target: recombinant human FAM19A5 protein (His-tagged) (human) (UniProt Q7Z5A7); assay: ELISA on N'-Term His FAM19A5, fit of the titration (OD 492 nm); R2 printed 0.9422
[16] = target: recombinant human FAM19A5 protein (His-tagged) (human) (UniProt Q7Z5A7); assay: ELISA on N'-Term His FAM19A5, fit of the titration; R2 printed 0.9422
[17] = target: recombinant human FAM19A5 protein (His-tagged) (human) (UniProt Q7Z5A7); assay: ELISA on N'-Term His FAM19A5, fit of the titration (OD 492 nm); R2 printed 0.2002
[18] = target: recombinant human FAM19A5 protein (His-tagged) (human) (UniProt Q7Z5A7); assay: ELISA on N'-Term His FAM19A5, fit of the titration (OD 492 nm); R2 printed 0.8703
F2-03-BSA (human) = target: T1, F2-03-BSA (human); assay: ELISA on mutant F2 peptide-BSA #3; details: remark: other sources report otherwise
T1 chain: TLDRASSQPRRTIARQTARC

[19] = target: recombinant human FAM19A5 protein (His-tagged) (human) (UniProt Q7Z5A7); assay: ELISA on coated FAM19A5, as in Example 6
[20] = target: recombinant human FAM19A5 protein (His-tagged) (human) (UniProt Q7Z5A7); assay: two-site sandwich ELISA; capture antibody P2-F11; biotinylated detection antibody P2-A03; antigen in ng/mL
[21] = target: recombinant human FAM19A5 protein (His-tagged) (human) (UniProt Q7Z5A7); assay: two-site sandwich ELISA; capture antibody 3-2; biotinylated detection antibody P2-A03; antigen in ng/mL
[22] = target: recombinant human FAM19A5 protein (His-tagged) (human) (UniProt Q7Z5A7); assay: two-site sandwich ELISA; capture antibody 13B4; biotinylated detection antibody P2-A03; antigen in ng/mL
[23] = target: recombinant human FAM19A5 protein (His-tagged) (human) (UniProt Q7Z5A7); assay: two-site sandwich ELISA; capture antibody 2-13; S/N = O.D. at 10 ng/mL antigen / O.D. at 0 ng/mL; O.D. in column 0 printed 0.22
[24] = target: recombinant human FAM19A5 protein (His-tagged) (human) (UniProt Q7Z5A7); assay: two-site sandwich ELISA; capture antibody 2-13; biotinylated detection antibody P2-A03; antigen in ng/mL
[25] = target: recombinant human FAM19A5 protein (His-tagged) (human) (UniProt Q7Z5A7); assay: ELISA on N'-Term His FAM19A5, fit of the titration; R2 printed 0.9746
[26] = target: recombinant human FAM19A5 protein (His-tagged) (human) (UniProt Q7Z5A7); assay: two-site sandwich ELISA; capture antibody 1-65; S/N = O.D. at 10 ng/mL antigen / O.D. at 0 ng/mL; O.D. in column 0 printed 0.15
[27] = target: recombinant human FAM19A5 protein (His-tagged) (human) (UniProt Q7Z5A7); assay: two-site sandwich ELISA; capture antibody 3-2; S/N = O.D. at 10 ng/mL antigen / O.D. at 0 ng/mL; O.D. in column 0 printed 0.16
[28] = target: recombinant human FAM19A5 protein (His-tagged) (human) (UniProt Q7Z5A7); assay: two-site sandwich ELISA; capture antibody P2-F11; S/N = O.D. at 10 ng/mL antigen / O.D. at 0 ng/mL; O.D. in column 0 printed 0.14
[29] = target: recombinant human FAM19A5 protein (His-tagged) (human) (UniProt Q7Z5A7); assay: two-site sandwich ELISA; capture antibody 1-65; biotinylated detection antibody P2-A03; antigen in ng/mL
[30] = target: recombinant human FAM19A5 protein (His-tagged) (human) (UniProt Q7Z5A7); assay: two-site sandwich ELISA; capture antibody 13B4; S/N = O.D. at 10 ng/mL antigen / O.D. at 0 ng/mL; O.D. in column 0 printed 0.22
[31] = target: recombinant human FAM19A5 protein (His-tagged) (human) (UniProt Q7Z5A7); assay: ELISA on N'-Term His FAM19A5, fit of the titration (OD 492 nm); R2 printed 0.9746

B1: P2-A01 (antibody, V domains shown)
VH: QEQLVESGGRLVTPGTPLTLSCTASGFFLSGYYMSWVRQAPGKGLEWIGIIYPSGSTDYASWAKGRFTISKTSTTVDLKITTPTTEDTATYFCARVAGYVGYGYETFFDIWGPGTLVTVSL
VL: ELVMTQTPPSLSASVGETVRIRCLASEDIYSGISWYQQKPGKPPTLLIYGASNLESGVPPRFSGSGSGSDYTLTIGGVQAEDAATYYCLGGVTYSSTGTHLTFGAGTNVEIKR
Q: For B1, which Bmax [1] is on record?
A: 1.19

Q: What about the Kd [2] of the same binder?
A: 9.09 nM

B2: anti-FAM19A5 antibody P2-F11 (antibody, V domains shown)
VH: QEQLVESGGRLVTPGTTLTLTCTVSGFSLSSYGVSWVRQAPGKGLEWIGYIANNYNPHYASWAKGRFTISKTSSTTVDLKMTSLTTEDTATYFCARDNYGMDPWGPGTLVTVSS
VL: ELDLTQTPSSVSAAVGGTVTINCQASQSVYNNKNLAWYQQKPGQPPKLLIYAASTLASGVSSRFKGSGSGTQFTLTISDVQCDDAATYYCQGEFSCSSADCNAFGGGTELEILR
modifications: Biotinylated when used as detection antibody in FIG. 6B.
Q: For B2, which S/N [3] is on record?
A: 1.7

Q: What about the O.D., antigen 100 [4] of the same binder?
A: 0.09

Q: And the O.D., antigen column 10 [4]?
A: 0.09

Q: What about the O.D., antigen 100 [5] of the same binder?
A: 1.83

Q: What about the O.D., antigen column 10 [5] of the same binder?
A: 2.04

Q: And the O.D., antigen 100 [6]?
A: 1.25

Q: What about the O.D., antigen column 10 [6] of the same binder?
A: 0.2

Q: And the S/N [7]?
A: 7

Q: What about the Bmax [8] of the same binder?
A: 3.26

Q: And the S/N [9]?
A: 1

Q: And the O.D., antigen 100 [10]?
A: 0.2

Q: And the O.D., antigen column 10 [10]?
A: 0.18

Q: What about the S/N [11] of the same binder?
A: 13.9

Q: And the S/N [12]?
A: 1

Q: And the Kd [13]?
A: 0.41 nM

Q: What about the O.D., antigen 100 [14] of the same binder?
A: 2.02

Q: What about the O.D., antigen column 10 [14] of the same binder?
A: 1.81

B3: P2-C12 (antibody, V domains shown)
VH: QSLEESGGRLVTPGTPLTLTCTVSGFSLSTYAVTWVRQAPGKGLEWIGYINWRGGTSYANWAKGRFTISKTSSTTVDLKMTSPTTEDTATYFCARDASSGAAFGSYGMDPWGPGTLVTVSS
VL: ELDMTQTPSSVSAAVGGTVTIKCQASQSISSYLSWYQQKPGQPPKLLIYEASKLASGVPSRFSGSGYGTEFTLTISDLECADAATYYCQQGYSSTNVWNAFGGGTNVEIKR
Q: B3 was tested. Which Bmax [15] did it give?
A: 1.73

Q: What about the Kd [16] of the same binder?
A: 7.64 nM

B4: P2-F07 (antibody, V domains shown)
VH: QSLEESGGRLVTPGTPLTLTCTASGFSLSSYYMNWVRQAPGKGLEWIGIIYPSGTTYYAGWAKGRFTISKTSTTVDLKITSPTSEDTATYFCARTVSGYFDIWGPGTLVTVSL
VL: ELDLTQTPPSLSASVGGTVTINCLASEDIYSALAWYQQKPGKPPTLLISGTSNLESGVPPRFSGSGSGTDYTLTIGGVQAEDAATYFCQGYSSYPLTFGAGTNVEIKR
Q: With B4 as the binder, how does the Bmax [17] read?
A: 0.134

B5: anti-FAM19A5 antibody 1-28 (antibody, V domains shown)
VH: AVTLDESGGGLQTPGGALSLVCKASGFDFSDYGMGWVRQAPGKGLEWVAAIRSDGSNPSYGSAVKGRATISKDNGRSTVRLQLNNLRAEDTATYYCAKDGNGYCALDAYRSGGYSCGVYPGSIDAWGHGTEVIVSS
VL: ALTQPSSVSANLEGTVEITCSGSGYGYGWYQQKSPGSAPVTVIYQNDKRPSDIPSRFSGSKSGSTGTLTITGVQVEDEAVYYCGSEDSSTLAGIFGAGTTLTVL
Q: Which Bmax [18] does the source give for B5 here?
A: 2.94

Q: What about the O.D (492nm) (F2-03-BSA (human)) of the same binder?
A: 0.055

Q: And the Kd [19]?
A: 0.17 nM

B6: anti-FAM19A5 antibody P2-A03 (antibody, V domains shown)
VH: QSVEESGGRLVTPGTPLTLTCTVSGFSLNNYDMSWVRQAPGKGLEYIGFMDTDGSAYYATWAKGRFTISRTSTTVDLKMTSPTTEDTATYFCARRGSSYYGGIDIWGPGTPVTVSL
VL: ELDLTQTPASVSEPVGGTVTIKCQASQSIGGNLAWYQQKPGQPPKLLIYRASTLASGVPSRFKGSGSGTDFTLTISDLECADAATYYCQSPAYDPAAYVGNAFGGGTELEILR
modifications: Biotinylated when used as detection antibody in FIG. 6B.
Q: What does the source list for B6?
A: O.D., antigen 100 [20]: 0.15; O.D., antigen column 10 [20]: 0.15; O.D., antigen 100 [21]: 1.91; O.D., antigen column 10 [21]: 1.66; O.D., antigen 100 [22]: 0.27; O.D., antigen column 10 [22]: 0.22; S/N [23]: 7.8; O.D., antigen 100 [24]: 1.88; O.D., antigen column 10 [24]: 1.72; Kd [25]: 0.61 nM; S/N [26]: 1; S/N [27]: 10; S/N [28]: 1.1; O.D., antigen 100 [29]: 0.16; O.D., antigen column 10 [29]: 0.15; S/N [30]: 1; Bmax [31]: 3.37

Source: patent publication US20200299373A1
